Target: F-actin (rabbit muscle actin, filaments) (rabbit, UniProt P68135 1-377)
Assay: co-sedimentation

B1: IRSp53/IMD (IRSp53/MIM domain of human IRSp53) (domain or fragment)
chain: MSLSRSEEMHRLTENVYKTIMEQFNPSLRNFIAMGKNYEKALAGVTYAAKGYFDALVKMGELASESQGSKELGDVLFQMAEVHRQIQNQLEEMLKSFHNELLTQLEQKVELDSRYLSAALKKYQTEQRSKGDALDKCQAELKKLRKKSQGSKNPQKYSDKELQYIDAISNKQGELENYVSDGYKTALTEERRRFCFLVEKQCAVAKNSAAYHSKGKELLAQKLPLWQQACADPSKIPERAVQLMQQVASN
Question: Does B1 bind?
Answer: binds
